Substrate in this series: NC(=O)C1=CN([C@@H]2O[C@H](COP(=O)(O)OP(=O)(O)OC[C@H]3O[C@@H](n4cnc5c(N)ncnc54)[C@H](O)[C@@H]3O)[C@@H](O)[C@H]2O)C=CC1
As to the kind of experiment: purified protein. The format is biochemical, Methylorubrum extorquens. The note with it: 100 mM sodium bicarbonate, N2-purged 200 mM Kpi pH 6.5 (no O2 or CO), NADH varied 6.25-100 µM, table header prints NAD+, free enzyme.

B1: MeFDH1 (Methylorubrum extorquens AM1) (protein)
chain: MSEASGTVRSFAHPGRGRNVARAVPKGRQVDPHAKVEIEELLGTRPRQRDLLIEHLHLIQDTYGQISADHLAALADEMSLAFAEVFETATFYAHFDVVKEGEADIPRLTIRVCDSITCAMFGADELLETLQRELASDAVRVVRAPCVGLCDHAPAVEVGHNFLHRADLASVRAAVEAEDTHAHIPTYVDYDAYRAGGGYATLERLRSGELPVDDVLKVLDDGGLRGLGGAGFPTGRKWRSVRGEPGPRLMAVNGDEGEPGTFKDQLYLNTDPHRFLEGMLIGAHVVEAADVYIYLRDEYPISREILAREIAKLPEGGTRIHLRRGAGAYICGEESSLIESLEGKRGLPRHKPPFPFQVGLFNRPTLINNIETLFWVRDLIERGAEWWKSHGRNGRVGLRSYSVSGRVKEPGVKLAPAGLTIQELIDEYCGGISDGHSFAAYLPGGASGGILPASMNDIPLDFGTLEKYGCFIGSAAVVILSDQDDVRGAALNLMKFFEDESCGQCTPCRSGTQKARMLMENGVWDTDLLGELAQCMRDASICGLGQAASNPVSTVIKYFPDLFPEPRAVAAE
notes: with Tungsten-containing formate dehydrogenase alpha subunit
As for B1, the Km amounted to 26.38 ± 1.16 µM, the kcat is 2.27 ± 0.064 s⁻¹ and the kcat/Km is 86200 ± 3000 M⁻¹ s⁻¹.

(Values after article PMC10579561, “Real flue gas CO2 hydrogenation to formate by an enzymatic reactor using O2- and CO-tolerant hydrogenase and formate dehydrogenase” (Frontiers in Bioengineering and Biotechnology, 2023).)
